Changes are numbered by the printed parent chain. Names and notes keep the numbering of the source.
B1: 13B8.2 Fab fragment (Fab, V domains shown)
VH: QVQLKQSGPGLVQPSQSLSITCTVSGFSLTTFGVHWVRQSPGKGLEWLGVIWRSGITDYNVPFMSRLSITKDNSKSQVFFKLNSLQPDDTAIYYCAKNDPGTGFAYWGQGTLVTVSA
VL: DIQMTQSPASLSASVGETVTFTCRASEMIYSYLAWYQQKQGKSPQLLVHDAKTLAEGVPSRFSGGGSGTQFSLKINTLQPEDFGTYYCQHHYGNPPTFGGGTKLEIKR
notes: Chimeric Fab expressed in the periplasm of E. coli; In the staining it was used as a monomer or multimerized on Strep-Tactin PE; also called CD4 wt (13B8.2); 13B8.2 wildtype (wt) Fab fragment
B2: mutant 13B8.2 Fab fragment, CD4 mutant 1 (F100A) (Fab, V domains shown)
VH: B1 VH with F104A
VL: B1 VL
notes: also called Fab mutant 1; F100K-H
B3: mutant 13B8.2 Fab fragment, CD4 mutant 2 (Y92A) (Fab, V domains shown)
VH: B1 VH
VL: B1 VL with Y92A
notes: also called Fab mutant 2; Y92-L
B4: mutant 13B8.2 Fab fragment, CD4 mutant 3 (H35A) (Fab, V domains shown)
VH: B1 VH with H35A
VL: B1 VL
notes: also called Fab mutant 3; H35-H

Key:
[1] = target: T1, CD4 (cell surface receptor molecule on PBMCs) (human, UniProt P01730 26-458); assay: flow cytometry on PBMCs, Fab multimerized on Strep-Tactin PE
T1 construct: whole, on cells; also called CD4 receptor molecule
Protocol: For staining of a CD4 receptor molecule specific target cell population in a mixture of cells, Strep-Tactin® labeled with phycoerythrine as a fluorescent label (IBA GmbH, Göttingen, Germany) was used as multimerization reagent together with the monomeric CD4 binding Fab-One-STrEP fragment of the variants of the antibody 13B8.2 (that served as receptor binding reagent) as described below. For FACS analysis 5×10⁶ PBMCs were incubated with Fab multimers consisting of 0.2 μg Fab-fragment (comprising binding site B) equipped with the One-STrEP-tag (binding partner C) as receptor binding reagent and 0.75 μg Strep-Tactin® PE (IBA GmbH, Göttingen, Germany) as multimerization reagent using the protocol below. In addition, after FACS separation, the multivalent complexes were disrupted in a portion of each of the stained cells by addition of biotin as described below. […]
For staining and dissociation experiments, 5×10⁶ PBMCs were incubated with the respective anti-CD4 Fab-multimer-Strep-Tactin® PE complexes or with the corresponding Fab-monomers (the latter not complexed with Strep-Tactin® PE). […] As expected from the monomer staining experiments, no remaining Fab monomers could be detected for mutants 2, 3 and 4, whereas substantial residual cell surface bound Fab of the wild-type and mutant 1 variants was observed.

[2] = target: T1, CD4 (cell surface receptor molecule on …); assay: flow cytometry on PBMCs, Fab multimerized on Strep-Tactin PE (before the Western blot experiment)
Protocol: CD4 Fab-multimers were generated with the different anti-CD4 Fab-mutants listed in Table 1 and further specified in FIG. 2 and Strep-Tactin® PE (IBA GmbH, Göttingen, Germany). PBMCs were incubated with the different CD4 Fab-multimers and consistent cell staining in each sample was verified by flow cytometry (solid line compared to the tinted histogram representing unstained cells). Then, cells were treated with D-biotin and subsequently washed. Finally, washed cells were lysed, and the soluble (S) and insoluble (I) fractions were analyzed for remaining Fab-monomers using highly specific anti-Strep-Tag® antibodies (StrepMAB-Classic Horse Radish Peroxidase (HRP) conjugate; IBA GmbH, Göttingen, Germany). To control application of consistent amounts of insoluble cell material, β-actin was detected simultaneously with a primary antibody against β-actin from rabbit (Santa Cruz Biotechnology Inc., Santa Cruz, USA) and a secondary antibody against rabbit Ig (immunoglobulin) conjugated to HRP (Sigma, St. Louis, USA). […]

| Binder | binding result [1] | binding result [2] |
| --- | --- | --- |
| B1 | binds | – |
| B2 | binds | – |
| B3 | – | binds |
| B4 | – | binds |

— US20150301046A1 (published 2015)
